According to article PMC5146963, “The mechanism of a formaldehyde-sensing transcriptional regulator” (Scientific Reports, 2016):

B1: Escherichia coli FrmR (EcFrmR) (natural protein, Escherichia coli K-12, UniProt P0AAP3 2-91, looked up)
chain: PSTPEEKKKVLTRVRRIRGQIDALERSLEGDAECRAILQQIAAVRGAANGLMAEVLESHIRETFDRNDCYSREVSQSVDDTIELVRAYLK
notes: FrmR, transcriptional repressor of the frmRAB operon, E. coli K-12; last residue Lys91; frmR amplified from E. coli K12 genomic DNA and ligated into pET22b at NdeI and NcoI; no tag is mentioned and the measured mass fits the untagged protein without Met1; source: E. coli expression strains (JRG6782, 6783 and 6784), frmR in pET22b, purified (Heparin-HP, HiLoad Superdex 200)
B2: EcFrmR(P2A) (natural protein, Escherichia coli K-12, UniProt P0AAP3 2-91, looked up)
chain: ASTPEEKKKVLTRVRRIRGQIDALERSLEGDAECRAILQQIAAVRGAANGLMAEVLESHIRETFDRNDCYSREVSQSVDDTIELVRAYLK
notes: FrmR, E. coli K-12, with P2A; Mutation made by overlap PCR or Quikchange; also called P2A variant; source: E. coli expression strains (JRG6782, 6783 and 6784), purified (Heparin-HP, HiLoad Superdex 200)
B3: EcFrmR(C35A) (natural protein, Escherichia coli K-12, UniProt P0AAP3 2-91, looked up)
chain: PSTPEEKKKVLTRVRRIRGQIDALERSLEGDAEARAILQQIAAVRGAANGLMAEVLESHIRETFDRNDCYSREVSQSVDDTIELVRAYLK
notes: FrmR, E. coli K-12, with C35A; Mutation made by overlap PCR or Quikchange; also called C35A variant; source: E. coli expression strains (JRG6782, 6783 and 6784), purified (Heparin-HP, HiLoad Superdex 200)

Molecular target: the molecule itself
Assay: SEC; calibrated size exclusion chromatography column; elution volume compared with standards

Stoichiometry N, 4:
B1, B2, B3
